Data as given in the supplement of paper PMC10567573.

B1: ZNF263 (parent)
chain: FAHSSNLLRHQRIHTGERPYKCPE

Variants of: B1
Assay: protein stability index of a GFP-peptide fusion (GPS, HEK-293T) (PSI 1-6); higher = more stable
Settings: c terminus: a fixed tail appended
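Also: lentivirally expressed fusions sorted by FACS into six bins by GFP to DsRed ratio, PSI derived from sequencing read proportions per bin multiplied by bin number.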

Variant	protein stability index
FAHSSNLLRHQRIHTIERPYKCPE [G16I]	2.22
FAHSSNLLRHQRIHTDERPYKCPE [G16D]	2.77
FAHSSNLLRHQRIHTCERPYKCPE [G16C]	2.36
FAHSSNLLRHQRIHTNERPYKCPE [G16N]	2.43
FAHSSNLLRHQRIHTHERPYKCPE [G16H]	2.02
FAHSSNLLRHQRIHTTERPYKCPE [G16T]	2.56
FAHSSNLLRHQRIHTPERPYKCPE [G16P]	2.37
FAHSSNLLRHQRIHTYERPYKCPE [G16Y]	1.93
FAHSSNLLRHQRIHTAERPYKCPE [G16A]	2.37
FAHSSNLLRHQRIHTMERPYKCPE [G16M]	1.88
FAHSSNLLRHQRIHTKERPYKCPE [G16K]	2.23
FAHSSNLLRHQRIHTWERPYKCPE [G16W]	1.32
FAHSSNLLRHQRIHTSERPYKCPE [G16S]	1.97
FAHSSNLLRHQRIHTFERPYKCPE [G16F]	1.37
FAHSSNLLRHQRIHTVERPYKCPE [G16V]	2.1
FAHSSNLLRHQRIHTLERPYKCPE [G16L]	2.07
FAHSSNLLRHQRIHTEERPYKCPE [G16E]	2.67
FAHSSNLLRHQRIHTRERPYKCPE [G16R]	1.57
FAHSSNLLRHQRIHTGFRPYKCPE [E17F]	1.95
FAHSSNLLRHQRIHTGKRPYKCPE [E17K]	1.44
FAHSSNLLRHQRIHTGHRPYKCPE [E17H]	2.47
FAHSSNLLRHQRIHTGLRPYKCPE [E17L]	2.04
FAHSSNLLRHQRIHTGIRPYKCPE [E17I]	2.29
FAHSSNLLRHQRIHTGWRPYKCPE [E17W]	2.16

Variant	protein stability index
FAHSSNLLRHQRIHTGMRPYKCPE [E17M]	1.98
FAHSSNLLRHQRIHTGCRPYKCPE [E17C]	1.65
FAHSSNLLRHQRIHTGQRPYKCPE [E17Q]	2.86
FAHSSNLLRHQRIHTGARPYKCPE [E17A]	2.31
FAHSSNLLRHQRIHTGPRPYKCPE [E17P]	2.63
FAHSSNLLRHQRIHTGYRPYKCPE [E17Y]	1.47
FAHSSNLLRHQRIHTGVRPYKCPE [E17V]	2.44
FAHSSNLLRHQRIHTGNRPYKCPE [E17N]	1.8
FAHSSNLLRHQRIHTGGRPYKCPE [E17G]	1.81
FAHSSNLLRHQRIHTGTRPYKCPE [E17T]	2.19
FAHSSNLLRHQRIHTGRRPYKCPE [E17R]	1.95
FAHSSNLLRHQRIHTGSRPYKCPE [E17S]	2.29
FAHSSNLLRHQRIHTGDRPYKCPE [E17D]	1.91
FAHSSNLLRHQRIHTGECPYKCPE [R18C]	2.23
FAHSSNLLRHQRIHTGEKPYKCPE [R18K]	2.09
FAHSSNLLRHQRIHTGEQPYKCPE [R18Q]	2.36
FAHSSNLLRHQRIHTGEMPYKCPE [R18M]	2.2
FAHSSNLLRHQRIHTGEPPYKCPE [R18P]	2.45
FAHSSNLLRHQRIHTGESPYKCPE [R18S]	2.35
FAHSSNLLRHQRIHTGEWPYKCPE [R18W]	2.66
FAHSSNLLRHQRIHTGEDPYKCPE [R18D]	3.28
FAHSSNLLRHQRIHTGETPYKCPE [R18T]	2.27
FAHSSNLLRHQRIHTGEIPYKCPE [R18I]	2.21
FAHSSNLLRHQRIHTGEGPYKCPE [R18G]	2.54

Variant	protein stability index
FAHSSNLLRHQRIHTGEFPYKCPE [R18F]	2.16
FAHSSNLLRHQRIHTGEVPYKCPE [R18V]	2.46
FAHSSNLLRHQRIHTGEAPYKCPE [R18A]	2.68
FAHSSNLLRHQRIHTGENPYKCPE [R18N]	2.45
FAHSSNLLRHQRIHTGEHPYKCPE [R18H]	2.52
FAHSSNLLRHQRIHTGEYPYKCPE [R18Y]	1.86
FAHSSNLLRHQRIHTGELPYKCPE [R18L]	2.39
FAHSSNLLRHQRIHTGEEPYKCPE [R18E]	3.36
FAHSSNLLRHQRIKTGERPYKCPE [H14K]	2.08
FAHSSNLLRHQRIGTGERPYKCPE [H14G]	2.59
FAHSSNLLRHQRIFTGERPYKCPE [H14F]	2.16
FAHSSNLLRHQRIRTGERPYKCPE [H14R]	2.18
FAHSSNLLRHQRILTGERPYKCPE [H14L]	2.57
FAHSSNLLRHQRIQTGERPYKCPE [H14Q]	2.98
FAHSSNLLRHQRIYTGERPYKCPE [H14Y]	1.9
FAHSSNLLRHQRICTGERPYKCPE [H14C]	3.21
FAHSSNLLRHQRIVTGERPYKCPE [H14V]	2.34
FAHSSNLLRHQRITTGERPYKCPE [H14T]	1.91
FAHSSNLLRHQRISTGERPYKCPE [H14S]	2.46
FAHSSNLLRHQRIITGERPYKCPE [H14I]	2.57
FAHSSNLLRHQRIETGERPYKCPE [H14E]	2.73
FAHSSNLLRHQRIWTGERPYKCPE [H14W]	3.6
FAHSSNLLRHQRIMTGERPYKCPE [H14M]	3
FAHSSNLLRHQRINTGERPYKCPE [H14N]	2.71

Variant	protein stability index
FAHSSNLLRHQRIDTGERPYKCPE [H14D]	2.81
FAHSSNLLRHQRIPTGERPYKCPE [H14P]	3.05
FAHSSNLLRHQRIATGERPYKCPE [H14A]	2.99
FAHSSNLLRHQRIHMGERPYKCPE [T15M]	2.36
FAHSSNLLRHQRIHPGERPYKCPE [T15P]	1.87
FAHSSNLLRHQRIHDGERPYKCPE [T15D]	2.56
FAHSSNLLRHQRIHLGERPYKCPE [T15L]	2.36
FAHSSNLLRHQRIHHGERPYKCPE [T15H]	2.12
FAHSSNLLRHQRIHVGERPYKCPE [T15V]	2.68
FAHSSNLLRHQRIHKGERPYKCPE [T15K]	1.99
FAHSSNLLRHQRIHGGERPYKCPE [T15G]	2.19
FAHSSNLLRHQRIHNGERPYKCPE [T15N]	2.36
FAHSSNLLRHQRIHWGERPYKCPE [T15W]	1.6
FAHSSNLLRHQRIHCGERPYKCPE [T15C]	1.95
FAHSSNLLRHQRIHEGERPYKCPE [T15E]	2.24
FAHSSNLLRHQRIHFGERPYKCPE [T15F]	2.58
FAHSSNLLRHQRIHYGERPYKCPE [T15Y]	2.23
FAHSSNLLRHQRIHSGERPYKCPE [T15S]	2.65
FAHSSNLLRHQRIHIGERPYKCPE [T15I]	2.29
FAHSSNLLRHQRIHQGERPYKCPE [T15Q]	2.19
FAHSSNLLRHQRIHRGERPYKCPE [T15R]	2.5
FAHSSNLLRHQRIHAGERPYKCPE [T15A]	1.97
